Experimental data published in paper PMC3098718.
Values joined by “and” are separate entries in the source; they are usually repeats but may differ in a detail not shown here. Equal entries are not always repeated. Where two headings read alike, the source gives them in different places.

Key:
[1] = molecular target: FLAG::NOS-3 (S644E, T648E), phospho-mimetic (C. elegans); test: pull-down
[2] = molecular target: FLAG::NOS-3 (S644E, T648E), phospho-mimetic (C. elegans); test: pull-down; remark: listed apart in the source

- fold reduction of FBF-1 binding compared to wild-type NOS-3 [1]: 17 fold and > 20 fold
- fold reduction of FBF-1 binding compared to wild-type NOS-3 [2]: 14 fold
B1: FBF-1 (natural protein)
chain: MDQSKMRYTNQFRKTPQKPTSTEVGNHHTPAHSPMAQHETSMWNFNSLNPYFSMLNMNDGMNYARHQQNHIVTSRPPTPLTDLMSLRSFQSFPNVFMPVSRSRTSSFIQSDTDSSRLEPDDFSQNVRYCSTEIDRNNSSSKNDHLKYSRPALSRNSRSFTRSNNVLPTWSLDSNGEMRSRLSLSEVLDSGDLMKFAVDKTGCQFLEKAVKGSLTSYQKFQLFEQVIGRKDDFLKLSTNIFGNYFVQEIIGMSLTTYDDDNIKRQEKLKNFISSQMTDMCLDKFACRVIQSSLQNMDLSLACKLVQALPRDARLIAICVDQNANHVIQKVVAVIPLKNWEFIVDFVATPEHLRQICFDKYGCRVVQTIIEKLTADSINVDLTSAAQHLRERALQRLMTSVTNRCQELATNEYANYIIQHIVSNDDLAVYRECIIEKCLMRNLLSLSQEKFASHVVEKAFLHAPMELLAEMMDEIFDGYMPHPGTGKDALDIMMFHQFGNYVVQCMLTICCDAVSGRRQTKEGSYDHANSFQVWLKKLHSRVTKERHRLSRFSSGKKMIETLAHLRSTHPIYGLQSSGHESFKTDCFSTASEHDGLELEKNGIEEGNLRLMRTFSP
modifications: S^35 labeled methionine
